assay: soluble on expression in E. coli; label from the status in PepcDB or PDB records

Soluble on expression in E. coli, not soluble:
MGSDKIHHHHHHMRDRTVEIMWQAIDALDFSRIKAKLSHQKQVQWTPESLESAEAGYRQFLKMAAKYPGVPAVPSEQVDAFWHAHILDTRRYASDCVNIFGHVLHHDPYVGIDGPEDEARLFEMAAQSDVLSMREFGSPLTSASYFAQAAADEPAYCAREATAAEPAYCARMAKGPSYCARMGKALEPAYCAREATANEVVKRDHAAGGQAAYCALTLSQPASC
MGSDKIHHHHHHMRDTWRWTMTQNKRSGNRRTPTPELDSASLVPPTVPSVVDDVEGGKPNTVEFRATYSPLRVEFHPWANSHPEIDEEYLFLYWNDVLVDKKTFSKPIEPEELFILVPVDKLIEGPHRLHYEVTLYSDTHVSSRPLDIYIDKTPPLLPADDRLMLPDYVIREGVTEEYLAANGDKLVCTVPSFIGAEPGDVVKWFYSENGAGQEMVDMMTLTQEHIETLGPLGTSKPLELTFPGAFIRQSGNGTRYVRYEVQDRAGTQPQRALAVALESDLSLAPRELPPPRIKEAKGSDYQSTLEPGNAFDGVTFVIPDDADIRPNETVTVFWGQPGTLGGYSTSTPISPGALEYLIPSQYVPPHMSGRVELYYQIDKPDVPPSPSHYVTVRKIEGLPIVQCSDIRNRALNLRTLGESTTFTLESWPFRHTSQFVNAWIDGVESGNVTREIRLPIATALPVPSETGVMVLGSVTKTELLRLAINYQFRVSVEVSFDDKLSWLKFPDAAAQLEDKP
MGSDKIHHHHHHMRGIVCVHKFCSRFSRTAYFTYGWMMNIELISLLKGNMGLTLTSELAADICVAAYRMETLAQSRDIAQIKPRYNGRIVFAVERIEDITEEIKHLHRTHWNETEGHRHRLPFQPDYETFIRYEQAGRYLLFTVRSEGKLLGNCAMYLDKSAHTQTLIATEDTLYLLPEARRGTTAKRFVRYVENAMKLLGVREINITVKTVNKAARFFRLLGYRHVENGLTKILEIENV
MGSDKIHHHHHHMRICPVPRSAPAGCARIRCLRRCAVFGRSCPKLGLWSSGARTLSHPPCADVNWPNTLCAQHVACALRSHCLTLRAPHALLGRAVRKAGDLMTTAGFQSIDAVQSELSEAGYVCGRALATVVFLSTRLGRPLFLEGEAGVGKTEIAKALAAVTGRPLIRLQCYEGLDAASAVYEWNFAAQMMAIRMAESAGQSDREALQAELFSQDYLIARPLLQAMQPDARGTPILLIDELDRTDAPFEAFLLEALSDFQVTIPELGTIRAPEPPMVILTSNRTREVHDALKRRCLYHWVDYPDFDRELEILTAQVPTASEALSRQVVAFVQSLRTEDLFKKPGVAETIDWANCLLALDVVNLSPETIADTLGALLKYQDDIARLQGSEAKRLLDEARSLLQEH
MGSDKIHHHHHHMRIIETIEEMKKFSEEMREKKKTIGFVPTMGYLHEGHLSLVRRARAENDVVVVSIFVNPTQFGPNEDYERYPRDFERDRKLLEKENVDCIFHPSVEEMYPPDFSTYVEETKLSKHLCGRSRPGHFRGVCTVVTKLFNIVKPHRAYFGQKDAQQFRVLRRMVRDLNMDVEMIECPIVREPDGLAMSSRNVYLSPEERQQALSLYQSLKIAENLYLNGERDAEKIKEEMIKHLSRFDKVKIDYVEIVDEETLEPVEKIDRKVIVAVAAWVGNARLIDNTILG
MGSDKIHHHHHHMRIQQLHYIIKIVETGSMNEAAKQLFITQPSLSNAVRDLEREMGIEIFIRNPKGITLTKDGVEFLSYARQVVEQTALLEERYKSQGHTRELFSVSAQHYAFVVNAFVSLLKETDMTRYELFLRETRTYEIIDDVKNFRSEIGVLFLNSYNHDVLTKMFDDNHLTYTSLFKAHPHIFVSKDNPLAKHQSVSLSDLEDFPYLSYDQGIHNSFYFSEEIMSQISHKKSIVVSDRATLFNLMIGLDGYTIATGILNSNLNGDNIVSIPLEVDDEIDIIYLKHEKANLSKMGEKFIDYLLEEVKFDK
MGSDKIHHHHHHMRIYSFYNENARRETLEEHVATALKLLDSAENSKLVKYGKKLSPEFERAVKLAIIFHDTGKVFFQIKKGYGYMSFRGHEYFSTYIFDVFARRLIKSEIENYEALSELRKICNFSIFFHHHAMNIRMREPEAGSNIKAGLKLLDVLYSEVKRFLEDKEKKALKAALEEVKEKGTANLTGYVKGEIVREVWRNAMDSSKLKRLCYLNLLVLIAADYSSAALNRGGNKTPFGRVVEEFSEFYLK
MGSDKIHHHHHHMRKLPPLRALQVFEAAARHLHFSRAAEELCLTQSAVSHQVRGLEQHLGQTLFARRGRELALTPKGEQLFLAVQSALDGLDSLCRQLNEAESRELRLAVYSSFAVKWLIPRLGDFRRQHPGIKIHLEMVSGDPPLSDQVADMFICGEQHQRGFWQTLLRPERLIPVCSPALANALGEALVMPLRLDSLPLLSVDEADIGPDWARWAKSQAQTLTQAQLQSYSHVLLAIEAAIAGQGIALASDFIVEGDIAAGKLMALPWPALETGFGFHFCCRERRLKEPAMAAFAEWIQQQAAMAG
MGSDKIHHHHHHMRKLYILGMILGMYATFSACNDEWKDELYTQMLSFKAPLGDNGLSEIYVRYQPDGTGIYQLPVIVSGSKSNSRNIDAKIAVDEDTLRILNQEKFPVGRQDLWYVPLAEQHYSFESNICHIPAGENIQLYPIHFNFNGLELDEKYVLPLTIEEDPSYVQNKYKGRYKALLGVNLFNDYSGTYNTTLMNIYIEGTTTDPAKVDTRLARVVDENTIFFYAGSTWVEDENRSRYKVFVEFEEGTEDEEGTIKGKLRLYGDEGEPGINIRPLGECKYEKRIIQHETIKYMERHLTTLELSYKYTDVTSNPDYPITYEVKGSMTMERQINPLIPDEDQAIEW
MGSDKIHHHHHHMRKNRITEMLATASTIVLDGALATELEARGCDLTDPLWSAKVLVENPALIYQVHFDYFKAGAQCAITASYQATPQGFEARGYSEAESLALIAKSVQLAAQARDDYRRDNTQAGTLLVAGSVGPYGAYLADGSEYRGDYQLPQADMMAFHRPRIAALHEAGADLLACETLPSFAEIEALIALLAEFPQAQAWFSFTLRDSEHLSDGTPLRTVLERVNACSQVVAVGLNCIALEKVTPALMHLSSLTDLPLVVYPNSGEQYDAVTKTWSSAHDTACSLTAYLPEWQTAGARLIGGCCRTTPADIAGIARCCQQ
MGSDKIHHHHHHMRKVAIYSRVSTINQAEEGYSIQGQIEALTKYCEAMEWKIYKNYSDAGFSGGKLERPAITELIEDGKNNKFDTILVYKLDRLSRNVKDTLYLVKDVFTANNIHFVSLKENIDTSSAMGNLFLTLLSAIAEFEREQIKERMQFGVMNRAKSGKTTAWKTPPYGYRYNKDEKTLSVNELEAANVRQMFDMIISGCSIMSITNYARDNFVGNTWTHVKVKRILENETYKGLVKYREQTFSGDHQAIIDEKTYNKAQIALAHRTDTKTNTRPFQGKYMLSHIAKCGYCGAPLKVCTGRAKNDGTRRQTYVCVNKTESLARRSVNNYNNQKICNTGRYEKKHIEKYVIDVLYKLQHDKEYLKKIKKDDNIIDITPLKKEIEIIDKKINRLNDLYINDLIDLPKLKKDIEELNHLKDDYNKAIKLNYLDKKNEDSLGMLMDNLDIRKSSYDVQSRIVKQLIDRVEVTMDNIDIIFKF
MGSDKIHHHHHHMRLFTSKSRYLIGVDIGTTSVKLVDIQRQQGVFHLRSYGTEILSEGIVIDKLIVDTEAVGNTIAGLARRCQAVGSSAATAVSGSAVITKIIDMDMVLNDVEREAQIRLDADQYIPYPLDDVNLDFEVLGPSLINDDMVQVLLAASRSENVDQRVDALTFGGLQTKVMDIESHAIERAFGLMVDSLPNLPELVALVDIGHNQTTLYVAKNGEFIYSREQLFGGSQLTEAIQNRYGLSAEEASISQREHALPEDYYPDVLTPFIENTIQQITRSLQFYFSSSQYSSIDHVVLAGGSSAIAGLAGMAQQRLGVPVSIANPFINMTIAPHIDHEQLAIDAPSLMAACGLALRSFD
MGSDKIHHHHHHMRLITFDASYDPIAEESKTVRVYVFEPEKIERNLIFLHGIGNGNIPYLLWFGEKFREYNIKTWFLILPYHEKRAPENWSGGEPFYHSSPSFCVKRFDEAVQDVIDLVDVVKRDNDKPISLMGFSFGGMITTIALAREKRIEKGVICCSGGDWRWINWYSPYTERLRELYRKNGNEYGCRSEKDCIKNRRNAPEIIKSFNSIEDIRKKPPVGCYFYDPASFAPFVDQKVLFFWALFDHVIPYQSYACLHKLLKNKKTVYLPSGHKGSYFFRRYIAKRVVRFLIDDE

Source: the DeepSol protein solubility set
